Experimental data: patent US20200283507A1 (US Dept. of Health and Human Services, published 2020)

T1: Hu/NoV/GI.1/Norwalk/1968/U.S. VLP (human norovirus GI.1, UniProt Q83884 1-530 (Norovirus (strain entry), limits assumed))
T1 construct: mature; full-length VP1 (ORF2) assembled as virus-like particle in baculovirus/Sf9; also called Norwalk VLP; NV
T1 sequence (looked up): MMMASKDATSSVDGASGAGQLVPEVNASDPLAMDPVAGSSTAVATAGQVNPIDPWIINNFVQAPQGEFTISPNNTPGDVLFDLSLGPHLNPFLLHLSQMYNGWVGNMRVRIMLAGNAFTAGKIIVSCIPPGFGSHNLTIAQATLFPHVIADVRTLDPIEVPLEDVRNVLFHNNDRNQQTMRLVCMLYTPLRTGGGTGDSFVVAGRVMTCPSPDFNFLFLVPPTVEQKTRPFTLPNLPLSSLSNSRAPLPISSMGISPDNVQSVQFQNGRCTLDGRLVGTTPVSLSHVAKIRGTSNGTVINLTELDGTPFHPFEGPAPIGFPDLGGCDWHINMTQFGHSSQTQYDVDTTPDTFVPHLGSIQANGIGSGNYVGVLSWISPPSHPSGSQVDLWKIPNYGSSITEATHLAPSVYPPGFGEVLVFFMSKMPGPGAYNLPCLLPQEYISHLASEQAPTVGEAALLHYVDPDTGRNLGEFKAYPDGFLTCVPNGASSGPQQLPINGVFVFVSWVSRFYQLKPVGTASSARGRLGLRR

B1: VHH 6.3 (VHH)
VHH: QVQLQQSGGGLVQPGGSLRLSCAASGSIFSIHTMGWYRQAPGKQRELVTTITTGGTTNYADSVKGRFTISRDDAKNTVYLQMNNLKPEDTAVYYCYALIQTASTTWYRQYWGQGTQVTVSS
notes: llama VHH, Norwalk (GI.1) library; also called clone 6.3
B2: VHH 13.1 (VHH)
VHH: QVKLQESGGGWVQAGGSLRLSCAASALTASITTMGWFRQTPEKEREFLAAINWTGDYKYYADSVKGRFTISRDNAKNTVDLQMNQLKPEDTAVYYCAASKIRNDIYLNDYTWYQYWGQGTQVTVSS
notes: llama VHH, Norwalk library, subtractive biopanning; His6 tag; also called 13.2; clone 13
B3: VHH 5.4 (VHH)
VHH: QVQLQQSGGGLVQPGGSLRLSCVASESTVSINIMGWYRQAPGKQRELVATITTGGTTNYADSVKGRFTISRDNAKNTVYLQMNSLEPEDTAVYYCNLKRRDLQARFGGYWGQGTQVTVSS
notes: llama VHH, MD2004 library; pHEN6, C-terminal His6 tag; also called clone 5.4
B4: VHH 4.1 (VHH)
VHH: QVKLQQSGGGLVQPGGSLRLSCAASESTISINTLGWYRQAPGNQRELVATITTGGTTNYADSVKGRFTISRDNAKNTVYLQMNNLEPGDTAVYYCNLKRRDLQSRFGGYWGQGTQVTVSS
notes: llama VHH, MD2004 library; pHEN6, C-terminal His6 tag; also called clone 4.1
B5: VHH 7.3 (VHH)
VHH: QVKLQESGGGLVQPGGSLRLSCTASRSIFTRAMAWYRQAPGKQRELVAAIDSGDRTHYADSVKGRFTISRNNAKDTLYLQMNSLKSEDTAVYYCNANLGALLDYWGQGTQVTVSS
notes: llama VHH, Norwalk library; pHEN6, C-terminal His6 tag; also called clone 7.3

How the values were obtained:
[1] = target: T1, Hu/NoV/GI.1/Norwalk/1968/U.S. VLP; assay: VLP ELISA
[2] = target: T2, Hu/NoV/GI.1/P7-587/2007/Stromstad/Sweden VLP (human norovirus GI.1); assay: VLP ELISA
T2 construct: mature; baculovirus VLP; VP2 may be present; also called Norovirus 2007

[3] = target: T1, Hu/NoV/GI.1/Norwalk/1968/U.S. VLP; assay: cell-based or functional assay
[4] = target: T2, Hu/NoV/GI.1/P7-587/2007/Stromstad/Sweden …; assay: cell-based or functional assay
[5] = target: T1, Hu/NoV/GI.1/Norwalk/1968/U.S. VLP; assay: blockade ELISA: VLP binding to saliva Ly+
Method: (§1) For this assay saliva positive for Ly antigen collected from a secretor individual was used. Saliva was boiled (95° C.) for 10 minutes immediately after collection, centrifuged for 5 minutes at 13000×g and the supernatants stored at −20° C. until used. ELISA 96 well U bottom polyvinyl plates Dynatech (Nunc, Thermo, EEUU) were coated with 100 μl/well of a 1/400 saliva dilution in 50 μM carbonate-bicarbonate buffer, pH 9.6. The plate was incubated overnight at 37° C. in a wet atmosphere. In parallel, serial two-fold dilutions of VHH starting from 8 ug/ml were mixed with 1.5 ug/ml of NoV VLP Norwalk and MD145 and incubated for 1h at 37° C. After 6 washes and a blocking step with 5% dry milk/0.05% Tween₂₀-PBS, 50 ul of each VHH-VLP mixture was transferred to the reaction plate, in duplicate. The assay was developed using a specific polyclonal antiserum made in guinea pig (1:10,000) followed by a peroxidase labeled anti-guinea pig IgG (1:2,000) and ABTS/H₂O₂ as substrate chromogen (KPL), 100 μl per well. Absorbance at 405 nm was measured. Mean % control binding, EC50 and criteria for determination of a blockade VHH were calculated as described above.

[6] = target: T1, Hu/NoV/GI.1/Norwalk/1968/U.S. VLP; assay: blockade ELISA: VLP binding to PGM type III
Method: (§2) Pig Gastric Mucin Type III (PGM) (Sigma Chemicals) was used as a substrate for NoV VLP antibody-blockade assay as previously described. Briefly, PGM was resuspended in PBS at 5 mg/ml and coated onto 96 well U bottom polyvinyl plates Dynatech (Nunc, Thermo, USA) at 10 μg/ml in PBS for 4 hours. Plates were then blocked ON at 4° C. in 5% dry milk in 0.05% Tween₂₀-PBS. […] One hundred μl of VLPs-VHH mix were transferred to the PGM coated plates and incubated for 1 hour. Bound VLPs were detected by specific hyperimmune sera made in guinea pig, followed by anti-guinea pig IgG-HRP (KLP). ABTS/H₂O₂ was used as chromogen/substrate solution. All incubations were performed at room temperature and absorbance at 405 nm was measured. Mean % control binding, EC50 and criteria for determination of a blockade VHH were calculated as described above.

[7] = target: T1, Hu/NoV/GI.1/Norwalk/1968/U.S. VLP; assay: blockade ELISA: VLP binding to synthetic HBGA H1
[8] = target: T3, Hu/NoV/GII.1/Hawaii/1971/U.S. VLP (human norovirus GII.1); assay: VLP ELISA
T3 construct: mature; baculovirus VLP; VP2 may be present

[9] = target: T4, Hu/NoV/Snow Mountain/GII.2/U.S. VLP (human norovirus GII.2); assay: VLP ELISA
T4 construct: mature; baculovirus VLP; VP2 may be present

[10] = target: T5, Hu/NoV/GII.2/Henryton/1971/U.S. VLP (human norovirus GII.2); assay: VLP ELISA
T5 construct: mature; baculovirus VLP; VP2 may be present

[11] = target: T6, Hu/NoV/GII.3/CHDC4031/1988/U.S. VLP (human norovirus GII.3); assay: VLP ELISA
T6 construct: mature; baculovirus VLP; VP2 may be present

[12] = target: T7, Hu/NoV/GII.4/CHDC4871/1977/U.S. VLP (human norovirus GII.4); assay: VLP ELISA
T7 construct: mature; baculovirus VLP; VP2 may be present

[13] = target: T8, Hu/NoV/GII.4/RockvilleD1/2012/U.S. VLP (human norovirus GII.4); assay: VLP ELISA
T8 construct: mature; baculovirus VLP; VP2 may be present

[14] = target: T9, Hu/NoV/GII.4/MD2004/2004/U.S. VLP (human norovirus GII.4); assay: VLP ELISA
T9 construct: mature; baculovirus VLP; VP2 may be present; also called MD2004 VLP

[15] = target: T10, Hu/NoV/GII.4/MD145-12/1997/U.S. VLP (human norovirus GII.4); assay: VLP ELISA
T10 construct: mature; baculovirus VLP; VP2 may be present

[16] = target: T11, Hu/NoV/GII.4/HS-191/2001/U.S. VLP (human norovirus GII.4); assay: VLP ELISA
T11 construct: mature; baculovirus VLP; VP2 may be present

[17] = target: T12, Hu/GII.6/Bethesda/2012/U.S. VLP (human norovirus GII.6); assay: VLP ELISA
T12 construct: mature; baculovirus VLP; VP2 may be present

[18] = target: T13, Hu/NoV/GII.7/DC119/U.S. VLP (human norovirus GII.7); assay: VLP ELISA
T13 construct: mature; baculovirus VLP; VP2 may be present

[19] = target: T9, Hu/NoV/GII.4/MD2004/2004/U.S. VLP; assay: cell-based or functional assay
[20] = target: T10, Hu/NoV/GII.4/MD145-12/1997/U.S. VLP; assay: cell-based or functional assay
[21] = target: T10, Hu/NoV/GII.4/MD145-12/1997/U.S. VLP; assay: blockade ELISA: VLP binding to saliva Ly+
Method: as §1

[22] = target: T9, Hu/NoV/GII.4/MD2004/2004/U.S. VLP; assay: blockade ELISA: VLP binding to PGM type III
Method: as §2

[23] = target: T10, Hu/NoV/GII.4/MD145-12/1997/U.S. VLP; assay: blockade ELISA: VLP binding to synthetic HBGA H3
[24] = target: T14, Hu/NoV/GI.3/Desert-Shield395/1990/U.S. VLP (human norovirus GI.3); assay: VLP ELISA
T14 construct: mature; baculovirus VLP; VP2 may be present

Binder	minimum concentration of VHH able to recognize 100 ng of VLP [1] [ng/well]	minimum concentration of VHH able to recognize 100 ng of VLP [2] [ng/well]	HAI titer, 0 Rh- RBC [3] [µg/mL]	HAI titer, 0 Rh- RBC [4] [µg/mL]	EC50 [5] [µg/mL]	EC50 [6] [µg/mL]	EC50 [7] [µg/mL]	minimum concentration of VHH able to recognize 100 ng of VLP [8] [ng/well]	minimum concentration of VHH able to recognize 100 ng of VLP [9] [ng/well]	minimum concentration of VHH able to recognize 100 ng of VLP [10] [ng/well]	minimum concentration of VHH able to recognize 100 ng of VLP [11] [ng/well]	minimum concentration of VHH able to recognize 100 ng of VLP [12] [ng/well]	minimum concentration of VHH able to recognize 100 ng of VLP [13] [ng/well]	minimum concentration of VHH able to recognize 100 ng of VLP [14] [ng/well]	minimum concentration of VHH able to recognize 100 ng of VLP [15] [ng/well]	minimum concentration of VHH able to recognize 100 ng of VLP [16] [ng/well]	minimum concentration of VHH able to recognize 100 ng of VLP [17] [ng/well]	minimum concentration of VHH able to recognize 100 ng of VLP [18] [ng/well]	HAI titer, B Rh+ RBC [19] [µg/mL]	HAI titer, B Rh+ RBC [20] [µg/mL]	further results
B1	0.5	0.5	0.19	0.05	2.04	0.661	1.01	–	–	–	–	–	–	–	–	–	–	–	–	–	–
B2	2	–	0.19	–	2.27	1.29	2.03	–	–	–	–	–	–	–	–	–	–	–	–	–	–
B3	–	–	–	–	–	–	–	1	2	2	0.5	0.5	0.5	1	4	0.25	1	0.5	0.39	0.39	EC50 [21]: 1.27 µg/mL; EC50 [22]: 2.02 µg/mL; EC50 [23]: 0.718 µg/mL
B4	–	–	–	–	–	–	–	1	2	1	2	0.5	1	2	2	0.5	2	0.5	0.19	0.39	EC50 [21]: 1.38 µg/mL; EC50 [22]: 2.91 µg/mL; EC50 [23]: 0.712 µg/mL
B5	0.5	0.5	0.39	0.05	–	–	–	–	–	–	–	–	–	–	–	–	–	–	–	–	minimum concentration of VHH able to recognize 100 ng of VLP [24]: 0.5 ng/well
